Data on four substances can be found in patent US20250243243A1, “DISRUPTION OF SONIC HEDGEHOG-SURF4 INTERACTION FOR CANCER TREATMENT” (The Hong Kong University of Science and Technology, priority 2022, published 2025).

ShhN^1-198-HA (mouse), sequence (Q62226 25-198): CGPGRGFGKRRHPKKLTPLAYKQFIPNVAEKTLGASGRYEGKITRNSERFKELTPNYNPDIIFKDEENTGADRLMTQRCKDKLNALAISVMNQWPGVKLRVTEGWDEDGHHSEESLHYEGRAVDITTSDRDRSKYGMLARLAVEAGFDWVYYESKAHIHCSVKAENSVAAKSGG

The test concerns the target ShhN^1-198-HA (mouse) (UniProt Q62226). Briefly: anti-HA immunoprecipitation from HEK293T lysate, label-free quantitative mass spectrometry; 1 unique peptide; Control Group, IGF2 Group and Abundance Ratio not given.
BHMT (from UniProt Q93088) (enzyme): the abundance in The ShhN Group came out at 2060.
The result for GRIA1 (from UniProt P42261) (receptor) reads 19800; that for PPIB (from UniProt P23284) (enzyme), 8940.
Then VPS51 (from UniProt Q9UID3), with 45400.
